Assay results as given in patent US20240252614A1 (Pfizer, published 2024).

How the values were obtained:
hMPV122 = target: T1, hMPV122 (hMPV B, UniProt Q6WB98 19-102); assay: BLI, 63C stress
T1 construct: A140C-S149C, T411C-Q434C, A459P
Protocol: (§1) Conformation integrity of hMPV B F protein mutants were evaluated by a thermal stress experiment. Crude cell culture supernatants were normalized based on the results of the titer quantitation and then incubated for 1 hour at room temperature and two higher temperatures. For the testing of hMPV B single mutants, the two temperatures were 53° C. and 56° C. After the incubation, the protein mutants were probed with prefusion specific monoclonal antibody hMPV-2 by OCTET HTX. Anti-Human IgG Fc Capture (AHC) biosensors were first equilibrated in PB before being dipped into more PB for to establish the initial baseline. Biosensors were incubated with hMPV-2 before being equilibrated in PB to establish the experimental baseline. The mAb-bound biosensors were then dipped into the thermal stresses cell culture supernatants for 5 minutes.

hMPV117 = target: T2, hMPV117 (hMPV B, UniProt Q6WB98 19-102); assay: BLI, 63C stress
T2 construct: T150C-R156C, A459P
Protocol: as §1

hMPV127 = target: T3, hMPV127 (hMPV B, UniProt Q6WB98 19-102); assay: BLI, 63C stress
T3 construct: A140C-S149C, G239A, T411C-Q434C, A459P
Protocol: as §1

hMPV135 = target: T4, hMPV135 (hMPV B, UniProt Q6WB98 19-102); assay: BLI, 63C stress
T4 construct: T49I, S149T, A459P
Protocol: as §1

hMPV125 = target: T5, hMPV125 (hMPV B, UniProt Q6WB98 19-102); assay: BLI, 63C stress
T5 construct: L141C-A161C, G239A, T411C-Q434C
Protocol: as §1

hMPV136 = target: T6, hMPV136 (hMPV B, UniProt Q6WB98 19-102); assay: BLI, 63C stress
T6 construct: A140C-S149C, A459P
Protocol: as §1

hMPV142 = target: T7, hMPV142 (hMPV B, UniProt Q6WB98 19-102); assay: BLI, 63C stress
T7 construct: L141C-A161C, S149T, A459P
Protocol: as §1

hMPV130 = target: T8, hMPV130 (hMPV B, UniProt Q6WB98 19-102); assay: BLI, 63C stress
T8 construct: L141C-A161C, G239A, T411C-Q434C, A459P
Protocol: as §1

hMPV128 = target: T9, hMPV128 (hMPV B, UniProt Q6WB98 19-102); assay: BLI, 63C stress
T9 construct: T49I, A140C-S149C, G239A, T411C-Q434C, A459P
Protocol: as §1

hMPV126 = target: T10, hMPV126 (hMPV B, UniProt Q6WB98 19-102); assay: BLI, 63C stress
T10 construct: T49I, T150C-R156C, G239A, A459P
Protocol: as §1

hMPV138 = target: T11, hMPV138 (hMPV B, UniProt Q6WB98 19-102); assay: BLI, 63C stress
T11 construct: T49I, A140C-S149C, A459P
Protocol: as §1

hMPV131 = target: T12, hMPV131 (hMPV B, UniProt Q6WB98 19-102); assay: BLI, 63C stress
T12 construct: T49I, L141C-A161C, G239A, T411C-Q434C, A459P
Protocol: as §1

hMPV144 = target: T13, hMPV144 (hMPV B, UniProt Q6WB98 19-102); assay: BLI, 63C stress
T13 construct: T49I, L141C-A161C, S149T, A459P
Protocol: as §1

hMPV121 = target: T14, hMPV121 (hMPV B, UniProt Q6WB98 19-102); assay: BLI, 63C stress
T14 construct: L141C-A161C, T411C-Q434C
Protocol: as §1

hMPV124 = target: T15, hMPV124 (hMPV B, UniProt Q6WB98 19-102); assay: BLI, 63C stress
T15 construct: L141C-A161C, T411C-Q434C, A459P
Protocol: as §1

hMPV133 = target: T16, hMPV133 (hMPV B, UniProt Q6WB98 19-102); assay: BLI, 63C stress
T16 construct: T49I, L141C-A161C, S149T, G239A, T411C-Q434C, A459P
Protocol: as §1

hMPV129 = target: T17, hMPV129 (hMPV B, UniProt Q6WB98 19-102); assay: BLI, 63C stress
T17 construct: T49I, A140C-S149C, G239A, T365I, T411C-Q434C, A459P
Protocol: as §1

hMPV120 = target: T18, hMPV120 (hMPV B, UniProt Q6WB98 19-102); assay: BLI, 63C stress
T18 construct: A140C-S149C, T411C-Q434C
Protocol: as §1

hMPV118 = target: T19, hMPV118 (hMPV B, UniProt Q6WB98 19-102); assay: BLI, 63C stress
T19 construct: T49I, T150C-R156C
Protocol: as §1

hMPV140 = target: T20, hMPV140 (hMPV B, UniProt Q6WB98 19-102); assay: BLI, 63C stress
T20 construct: T49I, L141C-A161C, T411C-Q434C, A459P
Protocol: as §1

hMPV061 = target: T21, hMPV061 (hMPV A, UniProt Q6WB98 19-102); assay: BLI, 50C stress, vs WT Control
T21 construct: G106A
Protocol: (§2) The OCTET HTX (Sartorius, Gottingen, Germany) instrument was used to evaluate the expression and conformational integrity for each mutant. All measurements were conducted at 30° C. temperature in 96-well black plates (Corning, Corning, NY) with a final volume of 240 μL per well at a constant agitation rate of 1000 RPM.
(§3) Conformation integrity of hMPV A F protein mutants were evaluated by thermal stress experiments. Crude cell culture supernatants were normalized based on the results of the titer quantitation and then incubated for 1 hour at room temperature and two higher temperatures. […] Anti-Human IgG Fc Capture (AHC) biosensors were first equilibrated in PB before being dipped into more PB to establish the initial baseline. […] The mAb-bound biosensors were then dipped into the thermal stressed cell culture supernatants for 5 minutes. The kinetics analysis was done by OCTET data analysis software (version 12.0, Sartorius) based on curve fitting of the entire associate step.

hMPV043 = target: T22, hMPV043 (hMPV A, UniProt Q6WB98 19-102); assay: BLI, 50C stress, vs WT Control
T22 construct: G366C-D454C
Protocol: as §2, §3

hMPV075 = target: T23, hMPV075 (hMPV A, UniProt Q6WB98 19-102); assay: BLI, 50C stress, vs WT Control
T23 construct: L473F
Protocol: as §2, §3

hMPV054 = target: T24, hMPV054 (hMPV A, UniProt Q6WB98 19-102); assay: BLI, 50C stress, vs WT Control
T24 construct: S132P
Protocol: as §2, §3

hMPV062 = target: T25, hMPV062 (hMPV A, UniProt Q6WB98 19-102); assay: BLI, 50C stress, vs WT Control
T25 construct: G121A
Protocol: as §2, §3

hMPV045 = target: T26, hMPV045 (hMPV A, UniProt Q6WB98 19-102); assay: BLI, 50C stress, vs WT Control
T26 construct: I137C-A159C
Protocol: as §2, §3

hMPV060 = target: T27, hMPV060 (hMPV A, UniProt Q6WB98 19-102); assay: BLI, 50C stress, vs WT Control
T27 construct: A459P
Protocol: as §2, §3

hMPV046 = target: T28, hMPV046 (hMPV A, UniProt Q6WB98 19-102); assay: BLI, 50C stress, vs WT Control
T28 construct: A140C-S149C
Protocol: as §2, §3

hMPV063 = target: T29, hMPV063 (hMPV A, UniProt Q6WB98 19-102); assay: BLI, 50C stress, vs WT Control
T29 construct: G239A
Protocol: as §2, §3

hMPV047 = target: T30, hMPV047 (hMPV A, UniProt Q6WB98 19-102); assay: BLI, 50C stress, vs WT Control
T30 construct: L141C-A159C
Protocol: as §2, §3

B1: hMPV-2 mAb (antibody, V domains shown)
VH: QVQLQQSGAEVKKPGASVKVSCKASGYTFTSYGISWVRQAPGQGLEWMGWISGYNGNTNYAQTFQGTFTMTTDTSTSTAYMELRRLRSGDTAVYYCARDRYYASGSYNGMDVWGQGTTVTVSS
VL: QSALTQPPSASGAPGQRVTVSCSGSSSNVGSSSVYWYQQLPGTAPKLLIYRNNQRPSGVPDRFSGSKSGTSASLAISGLRSEDEADYYCAAWDDSLSGWVFGGGTKLTVLG
notes: human IgG1
Response Shift (hMPV122): 0.665 nm | Response Shift (hMPV117): 0 nm | Response Shift (hMPV127): 0.696 nm | Response Shift (hMPV135): -0.015 nm | Response Shift (hMPV125): 0.233 nm | Response Shift (hMPV136): -0.027 nm | Response Shift (hMPV142): 0.054 nm | Response Shift (hMPV130): 0.079 nm | Response Shift (hMPV128): 0.746 nm | Response Shift (hMPV126): -0.075 nm | Response Shift (hMPV138): 0.156 nm | Response Shift (hMPV131): 0.679 nm | Response Shift (hMPV144): -0.015 nm | Response Shift (hMPV121): 0.078 nm | Response Shift (hMPV124): 0.065 nm | Response Shift (hMPV133): 0.62 nm | Response Shift (hMPV129): 0.661 nm | Response Shift (hMPV120): 0.502 nm | Response Shift (hMPV118): 0.028 nm | Response Shift (hMPV140): 0.747 nm | Fold change vs WT (hMPV061): 2 fold | Fold change vs WT (hMPV043): 2 fold | Fold change vs WT (hMPV075): 2.3 fold | Fold change vs WT (hMPV054): 1.6 fold | Fold change vs WT (hMPV062): 1.6 fold | Fold change vs WT (hMPV045): 0.4 fold | Fold change vs WT (hMPV060): 2.5 fold | Fold change vs WT (hMPV046): 1.7 fold | Fold change vs WT (hMPV063): 2.4 fold | Fold change vs WT (hMPV047): -0.1 fold
